{"source": "patent US20230110994A1", "about": "“CONJUGATES UNDERGOING INTRAMOLECULAR REARRANGEMENTS” (Ascendis Pharma A/S, priority 2020, published 2023)", "assay": "Plasma pharmacokinetics of HHC^MET in Wistar rats (sandwich ELISA)", "assay_type": "in vivo", "conditions": "n = 3", "method": "This study was performed in order to investigate the plasma pharmacokinetics of HHC^MET in Wistar rats following subcutaneous and intramuscular administration of transient HHC^MET-linker hydrogel prodrug 32 or following subcutaneous or intravenous administration of free HHC^MET. Animals (n=3 per group) received either a single SC injection in the neck region or a single IM injection in the thigh musculature of a formulation of 32 (10 mg/kg HHC^MET equivalents) or a single SC injection in the neck region or IV injection in the tail vein of an HHC^MET formulation (10 mg/kg HHC^MET). At selected time points, 200 μL blood were collected in Li-Heparin tubes and processed to plasma by centrifugation at 3,000 g for 10 minutes at 4° C. HHC^MET concentrations in rat plasma were determined with an in-house developed sandwich ELISA setup. For capturing HHC^MET, a human CTLA-4 (AA Ala37-Ser160)-Fc Tag fusion protein (Supplier AcroBiosystem, Newark, Del.; USA, catalog no. CT4-H5255) was coated to the ELISA plate wells and read-out was performed via a rabbit anti-camelid VHH antibody conjugated with horseradish peroxidase (supplier Genscript, Piscataway, N.J., USA, catalog no. A01861-200).\nCalibration standards of HHC^MET in blank plasma were prepared as follows: thawed Li-Heparin Wistar rat plasma was homogenized. The free HHC^MET formulation was spiked into blank plasma at concentrations between 96.0 ng/mL and 3.00 ng/mL with additional higher and lower anchor points. These solutions were used for the generation of a calibration curve. Calibration curves were analyzed via a 4-parameter […] fit and 1/Y weighted. Calibration curves were confirmed via separately prepared quality control standards at 10, 40 and 80 ng/mL."}
{"molecule": "HHC^MET: custom made protein of SEQ ID NO:1, expressed from E. coli (protein, nanobody) EVQLVESGGGLVQAGGSLRLSCAASGGTFSFYGMGWFRQAPGKEQEFVADIRTSAGRTYYADSVKGRFTISRDNAKNTVYLQMNSLKPEDTAVYYCAAEMSGISGWDYWGQGTQVTVSSGGGGSGGGSEVQLVESGGGLVQAGGSLRLSCAASGGTFSFYGMGWFRQAPGKEQEFVADIRTSAGRTYYADSVKGRFTISRDNAKNTVYLQMNSLKPEDTAVYYCAAEMSGISGWDYWGQGTQVTVSS", "values": [{"measurement": "mean HHC^MET concentration in plasma", "setting": "intravenous, 10 mg/kg, 0.25 h", "value": 17400, "unit": "ng/mL"}, {"measurement": "mean HHC^MET concentration in plasma", "setting": "intravenous, 10 mg/kg, 1 h", "value": 3530, "unit": "ng/mL"}, {"measurement": "mean HHC^MET concentration in plasma", "setting": "intravenous, 10 mg/kg, 4 h", "value": 1720, "unit": "ng/mL"}, {"measurement": "mean HHC^MET concentration in plasma", "setting": "intravenous, 10 mg/kg, 24 h", "value": 8.27, "unit": "ng/mL"}, {"measurement": "mean HHC^MET concentration in plasma", "setting": "intravenous, 10 mg/kg, 32 h", "value": "<LLOQ"}, {"measurement": "mean HHC^MET concentration in plasma", "setting": "intravenous, 10 mg/kg, 48 h", "value": "<LLOQ"}, {"measurement": "mean HHC^MET concentration in plasma", "setting": "intravenous, 10 mg/kg, 72 h", "value": 1.15, "unit": "ng/mL"}, {"measurement": "mean HHC^MET concentration in plasma", "setting": "intravenous, 10 mg/kg, 96 h", "value": "<LLOQ"}, {"measurement": "mean HHC^MET concentration in plasma", "setting": "intravenous, 10 mg/kg, 168 h", "value": "<LLOQ"}, {"measurement": "mean HHC^MET concentration in plasma", "setting": "subcutaneous, 10 mg/kg HHC^MET (equivalents), 0.25 h", "value": 2540, "unit": "ng/mL"}, {"measurement": "mean HHC^MET concentration in plasma", "setting": "subcutaneous, 10 mg/kg HHC^MET (equivalents), 1 h", "value": 5090, "unit": "ng/mL"}, {"measurement": "mean HHC^MET concentration in plasma", "setting": "subcutaneous, 10 mg/kg HHC^MET (equivalents), 4 h", "value": 2280, "unit": "ng/mL"}, {"measurement": "mean HHC^MET concentration in plasma", "setting": "subcutaneous, 10 mg/kg HHC^MET (equivalents), 24 h", "value": 2.60, "unit": "ng/mL"}, {"measurement": "mean HHC^MET concentration in plasma", "setting": "subcutaneous, 10 mg/kg HHC^MET (equivalents), 32 h", "value": "<LLOQ"}, {"measurement": "mean HHC^MET concentration in plasma", "setting": "subcutaneous, 10 mg/kg HHC^MET (equivalents), 48 h", "value": "<LLOQ"}, {"measurement": "mean HHC^MET concentration in plasma", "setting": "subcutaneous, 10 mg/kg HHC^MET (equivalents), 72 h", "value": 2.07, "unit": "ng/mL"}, {"measurement": "mean HHC^MET concentration in plasma", "setting": "subcutaneous, 10 mg/kg HHC^MET (equivalents), 96 h", "value": "<LLOQ"}, {"measurement": "mean HHC^MET concentration in plasma", "setting": "subcutaneous, 10 mg/kg HHC^MET (equivalents), 168 h", "value": "<LLOQ"}]}
